Measured values reported in the supplement of paper PMC9112550, “Optimization of the antimicrobial peptide Bac7 by deep mutational scanning” (BMC Biology, 2022).

Tested on: Escherichia coli TOP10
Assay: shrunken log2 fold change of peptide-encoding DNA abundance (4.5 h post-induction vs induction); higher = less antimicrobial activity (less host growth inhibition)
Settings: time post-induction: 4.5 h; library: site-saturation at positions 5, 18, 19, 20
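Also: peptides expressed intracellularly from a pBAD plasmid library in pooled LB shake-flask culture, induced with 0.3% L-arabinose, DNA abundance read by NGS, three biological replicates, DESeq2 with apeglm shrinkage.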

Sequence	shrunken log2 fold change
RRIRQRPPRLPRPRPRPYALPRP	-0.0202
RRIRHRPPRLPRPRPRPNRLPRP	0.0234
RRIRIRPPRLPRPRPRPNVIPRP	-0.82
RRIRQRPPRLPRPRPRPSVGPRP	0.119
RRIRMRPPRLPRPRPRPPWLPRP	0.568
RRIRCRPPRLPRPRPRPRVCPRP	0.284
RRIRDRPPRLPRPRPRPGIEPRP	0.103
RRIRQRPPRLPRPRPRPHQYPRP	-0.237
RRIRIRPPRLPRPRPRPQYCPRP	-0.15
RRIRLRPPRLPRPRPRPIQVPRP	-0.072
RRIRRRPPRLPRPRPRPKQPPRP	0.0672
RRIRGRPPRLPRPRPRPAASPRP	0.947
RRIRTRPPRLPRPRPRPKHRPRP	-0.191
RRIRDRPPRLPRPRPRPSAGPRP	0.67
RRIRNRPPRLPRPRPRPGEKPRP	-0.01
RRIRGRPPRLPRPRPRPIGTPRP	0.334
RRIRLRPPRLPRPRPRPDKAPRP	0.0248
RRIRNRPPRLPRPRPRPCFLPRP	-0.389
RRIRWRPPRLPRPRPRPGSTPRP	0.161
RRIRFRPPRLPRPRPRPRKIPRP	0.0429
RRIRTRPPRLPRPRPRPMQFPRP	-0.0258
RRIRARPPRLPRPRPRPREHPRP	0.376
RRIRHRPPRLPRPRPRPIQIPRP	-0.139
RRIRVRPPRLPRPRPRPKGPPRP	0.36
RRIRHRPPRLPRPRPRPNDPPRP	-0.246

Sequence	shrunken log2 fold change
RRIRNRPPRLPRPRPRPEQMPRP	-0.0261
RRIRPRPPRLPRPRPRPIKLPRP	-0.0641
RRIRWRPPRLPRPRPRPFWLPRP	0.0108
RRIRYRPPRLPRPRPRPQFQPRP	-0.718
RRIRIRPPRLPRPRPRPEVCPRP	0.503
RRIRQRPPRLPRPRPRPCPQPRP	-0.153
RRIRWRPPRLPRPRPRPNRVPRP	-0.0395
RRIRIRPPRLPRPRPRPDLFPRP	-0.103
RRIRHRPPRLPRPRPRPGVIPRP	-0.0357
RRIRYRPPRLPRPRPRPQFWPRP	0.313
RRIRPRPPRLPRPRPRPQRSPRP	0.265
RRIRVRPPRLPRPRPRPIFNPRP	-0.274
RRIRWRPPRLPRPRPRPAFLPRP	-0.0114
RRIRFRPPRLPRPRPRPWIWPRP	0.0425
RRIRGRPPRLPRPRPRPQQNPRP	0.383
RRIRQRPPRLPRPRPRPMDAPRP	0.05
RRIRARPPRLPRPRPRPFTWPRP	-0.193
RRIRIRPPRLPRPRPRPRVQPRP	0.0871
RRIRERPPRLPRPRPRPCMFPRP	-0.531
RRIRYRPPRLPRPRPRPYCPPRP	-0.848
RRIRWRPPRLPRPRPRPHNIPRP	-0.691
RRIRYRPPRLPRPRPRPQFIPRP	-1.19
RRIRVRPPRLPRPRPRPHCHPRP	-0.105
RRIRRRPPRLPRPRPRPTMSPRP	0.315
RRIRYRPPRLPRPRPRPAPTPRP	0.169

Sequence	shrunken log2 fold change
RRIRSRPPRLPRPRPRPNALPRP	-0.0803
RRIRHRPPRLPRPRPRPPEKPRP	-0.00804
RRIRCRPPRLPRPRPRPWVTPRP	-0.652
RRIRVRPPRLPRPRPRPGLVPRP	0.807
RRIRWRPPRLPRPRPRPMILPRP	-0.14
RRIRWRPPRLPRPRPRPDCQPRP	-0.00822
RRIRDRPPRLPRPRPRPWHMPRP	-0.301
RRIRHRPPRLPRPRPRPEQMPRP	0.023
RRIRERPPRLPRPRPRPHESPRP	0.0153
RRIRSRPPRLPRPRPRPMINPRP	-0.23
RRIRHRPPRLPRPRPRPRVIPRP	-0.12
RRIRGRPPRLPRPRPRPIPMPRP	0.372
RRIRFRPPRLPRPRPRPPRGPRP	0.685
RRIRFRPPRLPRPRPRPGWFPRP	0.237
RRIRCRPPRLPRPRPRPIMVPRP	-0.115
RRIRWRPPRLPRPRPRPVQPPRP	0.0708
RRIRTRPPRLPRPRPRPNYHPRP	-1.14
RRIRMRPPRLPRPRPRPAFAPRP	0.738
RRIRIRPPRLPRPRPRPTCNPRP	-0.313
RRIRDRPPRLPRPRPRPHIMPRP	-0.981
RRIRFRPPRLPRPRPRPPDAPRP	0.451
RRIRMRPPRLPRPRPRPLWHPRP	0.336
RRIRQRPPRLPRPRPRPFPYPRP	0.0303
RRIRYRPPRLPRPRPRPRQDPRP	-0.216
RRIRVRPPRLPRPRPRPKCQPRP	0.106

Sequence	shrunken log2 fold change
RRIRWRPPRLPRPRPRPHFFPRP	-0.0221
RRIRARPPRLPRPRPRPCAIPRP	-0.00341
RRIRWRPPRLPRPRPRPLSLPRP	0.0175
RRIRHRPPRLPRPRPRPPTWPRP	0.0706
RRIRDRPPRLPRPRPRPYEYPRP	-0.17
RRIRIRPPRLPRPRPRPSVYPRP	-0.277
RRIRWRPPRLPRPRPRPIDRPRP	-0.156
RRIRTRPPRLPRPRPRPYLIPRP	-0.183
RRIRERPPRLPRPRPRPDSEPRP	-0.0854
RRIRRRPPRLPRPRPRPKSFPRP	0.0604
RRIRWRPPRLPRPRPRPGKQPRP	0.151
RRIRFRPPRLPRPRPRPPGPPRP	0.897
RRIRARPPRLPRPRPRPSDKPRP	-0.197
RRIRTRPPRLPRPRPRPYVTPRP	-0.203
RRIRMRPPRLPRPRPRPSIRPRP	0.0426
RRIRQRPPRLPRPRPRPLGMPRP	-0.218
RRIRNRPPRLPRPRPRPRAMPRP	0.37
RRIRCRPPRLPRPRPRPCYNPRP	-0.837
RRIRFRPPRLPRPRPRPQFMPRP	-1.06
RRIRNRPPRLPRPRPRPAALPRP	0.341
RRIRERPPRLPRPRPRPHQKPRP	-0.0694
RRIRFRPPRLPRPRPRPQVTPRP	-0.367
RRIRFRPPRLPRPRPRPGPEPRP	0.103
RRIRCRPPRLPRPRPRPFHGPRP	-0.036
RRIRSRPPRLPRPRPRPHYVPRP	-0.488

Sequence	shrunken log2 fold change
RRIRKRPPRLPRPRPRPTPAPRP	1.41
RRIRGRPPRLPRPRPRPPDSPRP	0.952
RRIRIRPPRLPRPRPRPRLAPRP	0.237
RRIRWRPPRLPRPRPRPVEEPRP	0.0996
RRIRERPPRLPRPRPRPFPKPRP	0.459
RRIRQRPPRLPRPRPRPKGFPRP	-0.219
RRIRHRPPRLPRPRPRPSGTPRP	-0.0258
RRIRARPPRLPRPRPRPATCPRP	0.03
RRIRPRPPRLPRPRPRPQWKPRP	0.0366
RRIRTRPPRLPRPRPRPDYVPRP	-0.0882
RRIRTRPPRLPRPRPRPDFKPRP	-0.172
RRIRHRPPRLPRPRPRPRIWPRP	0.242
RRIRARPPRLPRPRPRPPWPPRP	0.738
RRIRQRPPRLPRPRPRPILWPRP	-0.185
RRIRWRPPRLPRPRPRPFTEPRP	-0.478
RRIRGRPPRLPRPRPRPGKSPRP	0.176
RRIRPRPPRLPRPRPRPQEMPRP	0.0716
RRIRVRPPRLPRPRPRPNLQPRP	0.0671
RRIRTRPPRLPRPRPRPKGTPRP	-0.188
RRIRQRPPRLPRPRPRPWIKPRP	-0.0062
RRIRGRPPRLPRPRPRPSNCPRP	0.0376
RRIRMRPPRLPRPRPRPHDYPRP	1.54
RRIRQRPPRLPRPRPRPDRVPRP	0.00438
RRIRQRPPRLPRPRPRPIGEPRP	-0.0171
RRIRCRPPRLPRPRPRPWGKPRP	-0.102

Sequence	shrunken log2 fold change
RRIRYRPPRLPRPRPRPMYKPRP	-0.28
RRIRNRPPRLPRPRPRPQGTPRP	-0.0148
RRIRFRPPRLPRPRPRPYNSPRP	-0.136
RRIRNRPPRLPRPRPRPACEPRP	0.172
RRIRKRPPRLPRPRPRPGNKPRP	-0.0985
RRIRDRPPRLPRPRPRPPFMPRP	0.042
RRIRFRPPRLPRPRPRPWRVPRP	0.0748
RRIRARPPRLPRPRPRPLHRPRP	0.281
RRIRDRPPRLPRPRPRPQYAPRP	-0.101
RRIRMRPPRLPRPRPRPTTTPRP	0.276
RRIRMRPPRLPRPRPRPYLHPRP	-0.437
RRIRQRPPRLPRPRPRPMPQPRP	0.00445
RRIRTRPPRLPRPRPRPDQGPRP	0.23
RRIRNRPPRLPRPRPRPQQYPRP	0.017
RRIRRRPPRLPRPRPRPTINPRP	-0.134
RRIRFRPPRLPRPRPRPRPFPRP	0.401
RRIRMRPPRLPRPRPRPSINPRP	0.0424
RRIRIRPPRLPRPRPRPIYIPRP	-0.159
RRIRGRPPRLPRPRPRPIRGPRP	0.29
RRIRKRPPRLPRPRPRPIHYPRP	-0.15
RRIRMRPPRLPRPRPRPDFKPRP	-0.11
RRIRCRPPRLPRPRPRPYVSPRP	-0.207
RRIRTRPPRLPRPRPRPAFRPRP	-0.125
RRIRLRPPRLPRPRPRPAMRPRP	0.28
RRIRPRPPRLPRPRPRPCWFPRP	-0.0933
